Experimental data as given in the supplement of paper PMC10724198.
± gives the standard deviation of the averaged measurements.

test system: Saccharomyces cerevisiae; experiment: protein stability index of tFT-peptide fusion (C-terminal peptide) (PSI (0-1 scale)); higher = more stable (slower turnover); details: genetic background: cdc34-1; temperature: 37 C
Description: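 MPS profiling in S. cerevisiae of the tFT-X12 degron library: putative degron peptides plus stable controls, 12 aa, fused to the C-terminus of a sfGFP-mCherry timer. Cells are FACS-sorted into 8 mCherry/sfGFP bins and deep-sequenced. PSI runs from 0 (unstable) to 1 (stable). Backgrounds are wild type, das1Δ and doa10Δ at 30 °C, and wild type, das1Δ, cdc34-1 and cdc53-1 at 37 °C; 2-3 technical replicates each.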
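Further: PSI is a weighted mean of sequencing reads over stability bins, variants kept only with over 10 reads, mCherry proximal and sfGFP distal, peptide attached via GGGS linker.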

**Q.** WFGGVRVPRHVV was tested. Which protein stability index did it give?
**A.** 0.651 ± 0.034

**Q.** How did the protein stability index turn out when WFLWWCVCLFVF was run?
**A.** 0.312 ± 0.015

**Q.** For WFWTFIWLIMDD, which protein stability index is on record?
**A.** 0.435 ± 0.049

**Q.** WGFLRVMVDIEL was tested. Which protein stability index did it give?
**A.** 0.146 ± 0.014

**Q.** How did the protein stability index turn out when WGRTIGATFTGR was run?
**A.** 0.698 ± 0.029

**Q.** WILSIVVWGKRV was tested. Which protein stability index did it give?
**A.** 0.2245 ± 0.0016

**Q.** With WMSVKLLTLRLC as the sequence, how does the protein stability index read?
**A.** 0.302 ± 0.091

**Q.** With WPRLSHIASFLA as the sequence, how does the protein stability index read?
**A.** 0.675 ± 0.039

**Q.** For WRFFLLLFFFGF, which protein stability index is on record?
**A.** 0.493 ± 0.0066

**Q.** WRIDVTIVCLGY was tested. Which protein stability index did it give?
**A.** 0.157 ± 0.03

**Q.** With WSCGRVWQRFCD as the sequence, how does the protein stability index read?
**A.** 0.675 ± 0.019

**Q.** How did the protein stability index turn out when WSSAHVAWCYTT was run?
**A.** 0.619 ± 0.026

**Q.** Which protein stability index does the source give for WTILTVMFCSYI here?
**A.** 0.312 ± 0.011

**Q.** For WVDVAGIVAVAG, which protein stability index is on record?
**A.** 0.526 ± 0.021

**Q.** Which protein stability index does the source give for WWGIVIVGGLGC here?
**A.** 0.526 ± 0.0069

**Q.** With YAFTCFLLVVAP as the sequence, how does the protein stability index read?
**A.** 0.172 ± 0.0073

**Q.** How did the protein stability index turn out when YFFGWSVSLLIL was run?
**A.** 0.133 ± 0.014

**Q.** Which protein stability index does the source give for YFLAMFIISGGV here?
**A.** 0.371 ± 0.032

**Q.** Which protein stability index does the source give for YILPTPTVISLA here?
**A.** 0.262 ± 0.025

**Q.** YLGPHLRWARCV was tested. Which protein stability index did it give?
**A.** 0.495 ± 0.018

**Q.** How did the protein stability index turn out when YLSLPSSIFLCF was run?
**A.** 0.501 ± 0.022

**Q.** YLTLAGFPLNLF was tested. Which protein stability index did it give?
**A.** 0.666 ± 0.014

**Q.** For YNNKITRYRRDS, which protein stability index is on record?
**A.** 0.654 ± 0.053

**Q.** With YRNRKMYCITNC as the sequence, how does the protein stability index read?
**A.** 0.682 ± 0.03

**Q.** With YTHRYFVRLFAV as the sequence, how does the protein stability index read?
**A.** 0.518 ± 0.047

**Q.** YVLVVSFLACVF was tested. Which protein stability index did it give?
**A.** 0.0628 ± 0.013

**Q.** Which protein stability index does the source give for YWIFCYFFWGGV here?
**A.** 0.392 ± 0.032

same assay, conditions: genetic background: cdc53-1; temperature: 37 C

**Q.** With WFGGVRVPRHVV as the sequence, how does the protein stability index read?
**A.** 0.709 ± 0.027

**Q.** With WFLWWCVCLFVF as the sequence, how does the protein stability index read?
**A.** 0.314 ± 0.03

**Q.** With WFWTFIWLIMDD as the sequence, how does the protein stability index read?
**A.** 0.501 ± 0.044

**Q.** WGFLRVMVDIEL was tested. Which protein stability index did it give?
**A.** 0.223 ± 0.1

**Q.** With WGRTIGATFTGR as the sequence, how does the protein stability index read?
**A.** 0.779 ± 0.0021

**Q.** With WILSIVVWGKRV as the sequence, how does the protein stability index read?
**A.** 0.363 ± 0.068

**Q.** With WMSVKLLTLRLC as the sequence, how does the protein stability index read?
**A.** 0.357 ± 0.014

**Q.** For WPRLSHIASFLA, which protein stability index is on record?
**A.** 0.724 ± 0.038

**Q.** For WRFFLLLFFFGF, which protein stability index is on record?
**A.** 0.536 ± 0.024

**Q.** With WRIDVTIVCLGY as the sequence, how does the protein stability index read?
**A.** 0.256 ± 0.042

**Q.** How did the protein stability index turn out when WSCGRVWQRFCD was run?
**A.** 0.74 ± 0.01

**Q.** Which protein stability index does the source give for WSSAHVAWCYTT here?
**A.** 0.723 ± 0.021

**Q.** For WTILTVMFCSYI, which protein stability index is on record?
**A.** 0.396 ± 0.014

**Q.** How did the protein stability index turn out when WVDVAGIVAVAG was run?
**A.** 0.55 ± 0.022

**Q.** With WWGIVIVGGLGC as the sequence, how does the protein stability index read?
**A.** 0.566 ± 0.019

**Q.** With YAFTCFLLVVAP as the sequence, how does the protein stability index read?
**A.** 0.23 ± 0.011

**Q.** Which protein stability index does the source give for YFFGWSVSLLIL here?
**A.** 0.251 ± 0.039

**Q.** YFLAMFIISGGV was tested. Which protein stability index did it give?
**A.** 0.435 ± 0.032

**Q.** For YILPTPTVISLA, which protein stability index is on record?
**A.** 0.271 ± 0.006

**Q.** Which protein stability index does the source give for YLGPHLRWARCV here?
**A.** 0.715 ± 0.02

**Q.** YLSLPSSIFLCF was tested. Which protein stability index did it give?
**A.** 0.504 ± 0.0066

**Q.** How did the protein stability index turn out when YLTLAGFPLNLF was run?
**A.** 0.7399 ± 0.0022

**Q.** Which protein stability index does the source give for YNNKITRYRRDS here?
**A.** 0.731 ± 0.034

**Q.** With YRNRKMYCITNC as the sequence, how does the protein stability index read?
**A.** 0.737 ± 0.017

**Q.** With YTHRYFVRLFAV as the sequence, how does the protein stability index read?
**A.** 0.708 ± 0.0076

**Q.** How did the protein stability index turn out when YVLVVSFLACVF was run?
**A.** 0.172 ± 0.053

**Q.** YWIFCYFFWGGV was tested. Which protein stability index did it give?
**A.** 0.483 ± 0.0098

same assay, conditions: genetic background: das1 deletion; temperature: 30 C

**Q.** With WFGGVRVPRHVV as the sequence, how does the protein stability index read?
**A.** 0.668 ± 0.018

**Q.** With WFLWWCVCLFVF as the sequence, how does the protein stability index read?
**A.** 0.304 ± 0.023

**Q.** For WFWTFIWLIMDD, which protein stability index is on record?
**A.** 0.388 ± 0.016

**Q.** How did the protein stability index turn out when WGFLRVMVDIEL was run?
**A.** 0.198 ± 0.024

**Q.** With WGRTIGATFTGR as the sequence, how does the protein stability index read?
**A.** 0.644 ± 0.024

**Q.** How did the protein stability index turn out when WILSIVVWGKRV was run?
**A.** 0.231 ± 0.025

**Q.** For WMSVKLLTLRLC, which protein stability index is on record?
**A.** 0.438 ± 0.04

**Q.** How did the protein stability index turn out when WPRLSHIASFLA was run?
**A.** 0.682 ± 0.021

**Q.** WRFFLLLFFFGF was tested. Which protein stability index did it give?
**A.** 0.44 ± 0.04

**Q.** For WRIDVTIVCLGY, which protein stability index is on record?
**A.** 0.19 ± 0.033

**Q.** With WSCGRVWQRFCD as the sequence, how does the protein stability index read?
**A.** 0.674 ± 0.018

**Q.** WSSAHVAWCYTT was tested. Which protein stability index did it give?
**A.** 0.5991 ± 0.0031

**Q.** With WTILTVMFCSYI as the sequence, how does the protein stability index read?
**A.** 0.276 ± 0.026

**Q.** With WVDVAGIVAVAG as the sequence, how does the protein stability index read?
**A.** 0.421 ± 0.026

**Q.** For WWGIVIVGGLGC, which protein stability index is on record?
**A.** 0.423 ± 0.019

**Q.** For YAFTCFLLVVAP, which protein stability index is on record?
**A.** 0.167 ± 0.021

**Q.** YFFGWSVSLLIL was tested. Which protein stability index did it give?
**A.** 0.192 ± 0.035

**Q.** YFLAMFIISGGV was tested. Which protein stability index did it give?
**A.** 0.28 ± 0.034

**Q.** Which protein stability index does the source give for YILPTPTVISLA here?
**A.** 0.249 ± 0.034

**Q.** How did the protein stability index turn out when YLGPHLRWARCV was run?
**A.** 0.662 ± 0.027

**Q.** How did the protein stability index turn out when YLSLPSSIFLCF was run?
**A.** 0.461 ± 0.018

**Q.** With YLTLAGFPLNLF as the sequence, how does the protein stability index read?
**A.** 0.649 ± 0.017

**Q.** How did the protein stability index turn out when YNNKITRYRRDS was run?
**A.** 0.661 ± 0.055

**Q.** For YRNRKMYCITNC, which protein stability index is on record?
**A.** 0.636 ± 0.038
